B1: Regulatory protein NPR1 (Arabidopsis thaliana (Mouse-ear cress)), P93002 (parent)
chain: MDTTIDGFADSYEISSTSFVATDNTDSSIVYLAAEQVLTGPDVSALQLLSNSFESVFDSPDDFYSDAKLVLSDGREVSFHRCVLSARSSFFKSALAAAKKEKDSNNTAAVKLELKEIAKDYEVGFDSVVTVLAYVYSSRVRPPPKGVSECADENCCHVACRPAVDFMLEVLYLAFIFKIPELITLYQRHLLDVVDKVVIEDTLVILKLANICGKACMKLLDRCKEIIVKSNVDMVSLEKSLPEELVKEIIDRRKELGLEVPKVKKHVSNVHKALDSDDIELVKLLLKEDHTNLDDACALHFAVAYCNVKTATDLLKLDLADVNHRNPRGYTVLHVAAMRKEPQLILSLLEKGASASEATLEGRTALMIAKQATMAVECNNIPEQCKHSLKGRLCVEILEQEDKREQIPRDVPPSFAVAADELKMTLLDLENRVALAQRLFPTEAQAAMEIAEMKGTCEFIVTSLEPDRLTGTKRTSPGVKIAPFRILEEHQSRLKALSKTVELGKRFFPRCSAVLDQIMNCEDLTQLACGEDDTAEKRLQKKQRYMEIQETLKKAFSEDNLELGNSSLTDSTSSTSKSTGGKRSNRKLSHRRR
partner: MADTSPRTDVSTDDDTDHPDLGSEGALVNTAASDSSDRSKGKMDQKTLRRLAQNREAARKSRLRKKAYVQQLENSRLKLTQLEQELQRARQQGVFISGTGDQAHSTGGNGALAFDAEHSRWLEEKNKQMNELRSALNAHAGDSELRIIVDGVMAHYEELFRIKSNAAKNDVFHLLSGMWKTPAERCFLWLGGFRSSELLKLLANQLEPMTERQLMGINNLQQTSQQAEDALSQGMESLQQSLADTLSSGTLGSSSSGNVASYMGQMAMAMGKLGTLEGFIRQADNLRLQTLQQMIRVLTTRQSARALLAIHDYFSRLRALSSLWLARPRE

In this assay the parent is B1. The following applies: with tga2_arath TGA2, P43273.
Regarding C150Y, the “effect of a mutation on the interaction” value is “disrupting interaction”.
